Measurements taken from patent publication US20060122119A1 (INSTITUT NAT L DE LA SANTE ET DE LA RECHERCHE MED, published 2006).

B1: tyrosinase peptide 309-322 TPRLPSSADVEFCL (peptide)
peptide: TPRLPSSADVEFCL
notes: synthetic peptide; also called 14-mer 309-322
B2: tyrosinase peptide 309-321 TPRLPSSADVEFC (peptide)
peptide: TPRLPSSADVEFC
notes: synthetic peptide; also called 13-mer 309-321
B3: tyrosinase peptide 309-320 TPRLPSSADVEF (peptide)
peptide: TPRLPSSADVEF
notes: synthetic peptide; also called 12-mer 309-320
B4: NY-ESO-1 peptide 92-104 LAMPFATPMEAEL (peptide)
peptide: LAMPFATPMEAEL
notes: synthetic peptide; also called 13-mer 92-104
B5: NY-ESO-1 peptide 94-104 MPFATPMEAEL (peptide)
peptide: MPFATPMEAEL
notes: synthetic peptide; also called 11-mer 94-104
B6: NY-ESO-1 peptide 94-102 MPFATPMEA (peptide)
peptide: MPFATPMEA
notes: synthetic peptide; also called nonamer 94-102
B7: NY-ESO-1 peptide 92-103 LAMPFATPMEAE (peptide)
peptide: LAMPFATPMEAE
notes: synthetic peptide; also called 12-mer 92-103
B8: NY-ESO-1 peptide 94-103 MPFATPMEAE (peptide)
peptide: MPFATPMEAE
notes: synthetic peptide; also called decamer 94-103

Each binder was assayed against HLA-B*3501 (human).
QVPLDCVLYR (synthetic peptide, 70% purity) [gp100 peptide 470-479 QVPLDCVLYR]: no binding.

Target: HLA-B*3501 (human)
Remark: another data set of the same source
In the case of EAAGIGILY (synthetic modified peptide) [modified Melan-A peptide 26-34 EAAGIGILY], the “RA (relative affinity)” value is reported as 1.32.
EPAGIGILY (synthetic modified peptide) [modified Melan-A peptide 26-34 EPAGIGILY] was tested, and the “RA (relative affinity)” value was 0.4.
With VPLDCVLYRY (synthetic peptide) [gp100 peptide 471-480 VPLDCVLYRY] the “RA (relative affinity)” value was 2.6.
With VPLDCVLYR (synthetic peptide) [gp100 peptide 471-479 VPLDCVLYR] the “RA (relative affinity)” value was 20.
With B1 the “RA (relative affinity)” value was > 20.
In the case of B2, the “RA (relative affinity)” value is reported as 16.7.
With B3 the “RA (relative affinity)” value was 1.3.
With LPSSADVEF (synthetic peptide) [tyrosinase peptide 312-320 LPSSADVEF] the “RA (relative affinity)” value was 1.25.
For EVDPIGHVY (synthetic peptide) [MAGE-A6 peptide 168-176 EVDPIGHVY], the “RA (relative affinity)” value was 1.1.
In the case of B4, the “RA (relative affinity)” value is reported as 0.58.
For B5, the “RA (relative affinity)” value was 1.32.
With B6 the “RA (relative affinity)” value was 0.4.

Target: HLA-B*3501 (human)
Remark: another data set of the same source
For EAAGIGILY (synthetic modified peptide) [modified Melan-A peptide 26-34 EAAGIGILY], the “Stability (half-life of the peptide on HLA-B*35)” value (shortened to “Stability”) was > 6 h.
For EPAGIGILY (synthetic modified peptide) [modified Melan-A peptide 26-34 EPAGIGILY], the “Stability” value was > 6 h.
With VPLDCVLYRY (synthetic peptide) [gp100 peptide 471-480 VPLDCVLYRY] the “Stability” value was > 6 h.
With VPLDCVLYR (synthetic peptide) [gp100 peptide 471-479 VPLDCVLYR] the “Stability” value was < 0.5 h.
With B1 the “Stability” value was > 6 h.
With B2 the “Stability” value was < 0.5 h.
With B3 the “Stability” value was > 6 h.
For LPSSADVEF (synthetic peptide) [tyrosinase peptide 312-320 LPSSADVEF], the “Stability” value was 6 h.
In the case of EVDPIGHVY (synthetic peptide) [MAGE-A6 peptide 168-176 EVDPIGHVY], the “Stability” value is reported as 6 h.
With B4 the “Stability” value was > 6 h.
In the case of B7, the “Stability” value is reported as > 6 h.
For B5, the “Stability” value was > 6 h.
In the case of B8, the “Stability” value is reported as > 6 h.
In the case of B6, the “Stability” value is reported as > 6 h.
